Results on 15 molecules are retold here after patent US20090258005A1 (TRUBION PHARMACEUTICALS, published 2009).

For one test, the target named is T1, L1-CR1 (Her054P).
T1 construct: also called 1.0
T1 chain: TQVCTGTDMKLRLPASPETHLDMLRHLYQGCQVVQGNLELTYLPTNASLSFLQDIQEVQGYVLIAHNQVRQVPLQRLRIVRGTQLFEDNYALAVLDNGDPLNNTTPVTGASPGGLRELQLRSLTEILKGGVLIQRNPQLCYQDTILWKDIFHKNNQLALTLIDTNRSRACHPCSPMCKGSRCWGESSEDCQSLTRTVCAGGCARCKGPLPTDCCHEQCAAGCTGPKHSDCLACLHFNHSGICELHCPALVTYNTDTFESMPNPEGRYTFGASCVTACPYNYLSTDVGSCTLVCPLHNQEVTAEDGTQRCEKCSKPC
The experiment in a line: ELISA, soluble scFv on L1-CR1.

The target in the next test is T2, Full length HER2 (human, UniProt P04626 23-1255).
T2 construct: Endogenous HER2 on SKBR3, BT474, 22rv1, MDA-MB-175, MDA-MB-453 and MDA-MB-361 cells; also called HER2 on the cell surface; ErbB2
The test is described as follows: cell ELISA, phage scFv, SKBR3 cells. On the technique in general: In an ELISA, binding on a coated surface is turned into a signal by an enzyme label.

Another test has as its target T3, EQR (Her017P).
T3 construct: also called HER2 EQR-Fc; HER2 EQR DIMER
The test is described as follows: ELISA, soluble scFv on EQR.

Test [1] has as its target T4, Her018P, Her2 ECD with a deletion in the CR2 (Domain IV) region expressed with a mIgG2a Fc tail (human; murine, UniProt P04626 23-599).
T4 construct: Shares the name HER018 with the trastuzumab SMIP; also called 1.8 (Dimer); dimeric HER018; not shown: murine IgG2a Fc tail (C-terminal dimerising carrier) and any junction residues
The test is described as follows: ELISA, soluble scFv on Her018.

Method for EQR (Her017P): (§1) Various Her2-Fc proteins (e.g., Her008P, Her017P, Her018P, etc.) or a negative control murine IgG2a protein were coated overnight at 4° C. on 96-well Nunc Maxisorp at a concentration of 1 ug/ml in PBS. Alternatively, pre-blocked streptavidin-coated plates (Greiner) were coated with biotinylated Her2-Fc proteins for 1 hour at room temperature at a concentration of 1 ug/ml in block buffer (3% skim milk/1% BSA/PBS). Plates were washed three times using PBS and blocked for 1 hour at room temperature in 3% skim milk/1% BSA/PBS. Phage or peripreps were prepared as described above and were blocked for 1 hour at room temperature in an equal volume of 6% skim milk/1% BSA/PBS. Blocked plates were washed five times with PBS and 50 μl/well of blocked phage or periprep were transferred to the appropriate plates and incubated for 1 hour at room temperature. […] Plates were incubated for a further hour at room temperature and washed seven times with PBS. Signal was developed using TMB, the reaction stopped with H₂SO₄ and the absorbance read at 450 nm on an Envision plate reader (Perkin Elmer).
Method for L1-CR1 (Her054P): as §1

B1: S1R3C1_CS_1A6 (scFv, V domains shown)
VH: EVQLVQSGAEVKKPGESLKISCKGFGYNFRSAWIGWVRQMPGKGLEWMGVIYPGDSDVRYSPSFQGQVTISADKSISTAYLQWSSLKASDTAMYYCTRPVGQWVDSDYWGKGTLVTVSS
VL: QSVLTQPPSASGTPGQRVTISCSGSSSNIGTNTVNWYQQLPGTAPKLLIYTSNQRPSGVPARFSASNSGTSASLAISGLRSEDEADYYCAAWDDKLSGAVFGGGTKLTVL
notes: scFv, on phage in the screen; also called Her2_S1R3C1_CS_1A6
Consider B1, for which the binding result in the test with L1-CR1 (Her054P) is given as “no binding”; with Full length HER2 it was “binds”.

B2: S1R2C_CS_1H12 (scFv, V domains shown)
VH: EVQLVETGGGLVQPGGSLRLSCAASGFTFSSYGMNWVRQAPGKGLEWVSYISSSGNTIFYADSVKGRFTISRDSAKNSVSLQMNSLRDEDTAVYYCASYYSYYYGMDAWGQGTMVTVSS
VL: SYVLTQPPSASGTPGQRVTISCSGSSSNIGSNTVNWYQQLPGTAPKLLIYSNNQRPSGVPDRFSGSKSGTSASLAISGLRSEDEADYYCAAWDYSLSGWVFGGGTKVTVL
notes: scFv, on phage in the screen
For the molecule B2, the binding result with L1-CR1 (Her054P) is “no binding”; with Full length HER2, “binds”; with EQR (Her017P) it was “no binding”; in test [1], “no binding”.

B3: S1R3B2_DP47_1C9 (scFv, V domains shown)
VH: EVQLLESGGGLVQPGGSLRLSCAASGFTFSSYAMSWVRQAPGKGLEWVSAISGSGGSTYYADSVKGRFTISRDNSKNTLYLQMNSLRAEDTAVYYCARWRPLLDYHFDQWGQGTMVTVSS
VL: QSVLTQPPSASGTPGQTVTISCSGSSSNIGSSVVNWYQQFPGTAPKVLVYSNTQRPSGVPDRFSGSRSGTSASLAISGLQSEDEADYYCLAWDASLNGWVFGGGTKLTVL
notes: scFv, on phage in the screen; also called Her2_S1R3B2_DP47_1C9
Regarding B3, the binding result with L1-CR1 (Her054P) is “no binding”; in the test with Full length HER2 it was “binds”; in test [1] it was “no binding”.

B4: S1R3B2_DP47_1E10 (scFv, V domains shown)
VH: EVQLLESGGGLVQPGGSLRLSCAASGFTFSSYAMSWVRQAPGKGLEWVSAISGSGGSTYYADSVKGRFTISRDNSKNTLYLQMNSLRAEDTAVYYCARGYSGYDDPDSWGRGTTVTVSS
VL: HVILTQPPSTSGTPGQTVTISCSGSSSNIGSHYVYWYQQLPGTAPKLLIYRNNQRPSGVPDRFSGSKSGTSASLAISGLRSEDETDYYCAAWDDSLSGRVFGTGTKLTVL
notes: scFv, on phage in the screen; also called Her2_S1R3B2_DP47_1E10
For B4, the binding result with L1-CR1 (Her054P) is “no binding”; with Full length HER2, “binds”; with EQR (Her017P), “no binding”; in test [1] it was “no binding”.

B5: S1R3B1_BMV_1C12 (scFv, V domains shown)
VH: EVQLVQSGGGVVQPGRSLRLSCAASGFTFSSYGMHWVRQAPGKGLEWVAVISYDGSIKYYADSVKGRFTISRDNSKNTLYLQMNSLRAEDTAVYYCARTGEYSGYDTSGYSNWGQGTLVTVSS
VL: QSVLTQPPSASGTPGQRVTISCSGSSSNIGSNTVNWYQRLPGAAPQLLIYNNDQRPSGIPDRFSGSKSGTSGSLVISGLQSEDEADYYCASWDDSLNGRVFGGGTKLTVL
notes: scFv, soluble from bacterial periplasm in the screen; also called Her2_S1R3B1_BMV_1C12
For B5, in the test with L1-CR1 (Her054P), the binding result is listed as “no binding”.

B6: S1R3C1_DP47_1H1 (scFv, V domains shown)
VH: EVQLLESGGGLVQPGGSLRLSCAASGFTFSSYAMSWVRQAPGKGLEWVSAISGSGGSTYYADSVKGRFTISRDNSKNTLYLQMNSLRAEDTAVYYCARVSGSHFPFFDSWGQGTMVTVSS
VL: QSVLTQPPSVSVAPGQTARITCGGDKIGHKSVHWYQQKPGQAPVLLVYDDRKRPSGIPERFSGSNSGNTATLTISRVEAGDEAAYHCQVWDRSSDPYVFGTGTKVTVL
notes: scFv, soluble from bacterial periplasm in the screen; also called Her2_S1R3C1_DP47_1H1
For the molecule B6, the binding result (in the test with L1-CR1 (Her054P); with EQR (Her017P); in test [1]) was “no binding” in each case.

B7: S1R3C1_CS_1B10 (scFv, V domains shown)
VH: QVQLQQSGAEVKKPGSSVKVSCKASGGTISNYAISWVRLAPGQGLEWMGSIVPLHGTTNFAQKFQGRVTITADESTSTSYMEVNVLTYEDTAMYYCASLNWGYWGRGTLVTVSS
VL: NFMLTQPHSVSESPGKTVTISCTGSSGSIASNYVQWYQQRPDSAPTTVIYEDNRRSSGVPDRFSGSIDSSSNSASLSISGLKTEDEADYYCQSYDSSGHVVFGGGTKLTVL
notes: scFv, on phage in the screen; also called Her2_S1R3C1_CS_1B10
B7: the binding result with L1-CR1 (Her054P) is given as “no binding”.

B8: S1R3B2_BMV_1E1 (scFv, V domains shown)
VH: EVQLVETGGGVVQPGGSLSLSCAASGFTFSSYGMQWVRQAPGKGLEWVAFIRYDGSSEYYADSVKGRFTISRDNSKNTLYLQMNSLRAEDTAVYYCGRTLESSLWGKGTLVTVSS
VL: QSVLTQPPSVSAAPGQKVTISCSGSTSNIGNNYVSWYQQHPGKAPKLMIYDVSKRPSGVPDRFSGSKSGNSASLDISGLQSEDEADYYCAAWDDSLSEFLFGTRTKLTVL
notes: scFv, on phage in the screen; also called Her2_S1R3B2_BMV_1E1
Regarding B8, the binding result with L1-CR1 (Her054P) is listed as “no binding”; in the test with Full length HER2 it was “binds”; with EQR (Her017P), “no binding”; in test [1], “no binding”.

B9: S1R3B1_DP47_1E1 (scFv, V domains shown)
VH: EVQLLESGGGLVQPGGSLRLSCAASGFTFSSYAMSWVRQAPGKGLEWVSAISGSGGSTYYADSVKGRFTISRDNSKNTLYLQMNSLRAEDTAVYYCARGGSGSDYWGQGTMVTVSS
VL: NFMLTQPHSVSGSPGKTVTISCTRSSGYIDSKYVQWYQQRPGSAPTTVIYEDNRRPSGVPDRFSGSIDSSSNSASLTISGLETEDEADYYCQSYDDTNVVFGGGTKVTVL
notes: scFv, soluble from bacterial periplasm in the screen; also called Her2_S1R3B1_DP47_1E1
Turning to B9, the binding result (in the test with L1-CR1 (Her054P); in the test with EQR (Her017P); in test [1]) was “no binding” in each case.

B10: S1R3B2_DP47_1E8 (scFv, V domains shown)
VH: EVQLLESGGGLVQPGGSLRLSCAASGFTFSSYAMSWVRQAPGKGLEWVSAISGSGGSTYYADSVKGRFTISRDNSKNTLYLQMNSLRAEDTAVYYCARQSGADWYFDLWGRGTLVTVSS
VL: QAVLTQPSAVSGAPGQRVTISCTGTSSNIGTNYLVHWYQQRPGTAPQLLVSGNNTRPSGVTDRFSVSKSATSASLAITGLQAEDEADYYCQTYDINLRVWVFGGGTKVTVL
notes: scFv, on phage in the screen; also called Her2_S1R3B2_DP47_1E8
Consider B10, for which the binding result is listed as “no binding” with L1-CR1 (Her054P), “binds” with Full length HER2 and “no binding” in test [1].

B11: S1R3B2_BMV_1H5 (scFv, V domains shown)
VH: EVQLVQSGGGLVRPGGSLRLSCAASGFSFSDYYMTWIRQIPGKGLEWVAVIWNDGSDRYYADSVKGRFTISRDNSKNTLFLQMSSLRDEDTALYYCVRGGPTASSGFDYWGRGTLVTVSS
VL: SSELTQPASVSGSPGQSITISCTGTSSDVGGYNYVSWYLQHPGKAPKLMIYEGSKRPSGVSNRFSGSKSGNTASLTISGLQAEDEADYYCSSYTTRSTRVFGGGTKLTVL
notes: scFv, on phage in the screen; also called Her2_S1R3B2_BMV_1H5
Regarding B11, the binding result in the test with L1-CR1 (Her054P) was “no binding”; in the test with Full length HER2, “binds”.

B12: S1R3A1_BMV_1G4 (scFv, V domains shown)
VH: QVQLVESGAEVKKPGASVKVSCKASGYTFTSYDINWVRQAPGQRLEWMGWINAGNGNTKYSQKFQGRVTITRDTSASTAYMELRSLRSDDTAVYYCARGRSYGHPYYFDYWGQGTLVTVSS
VL: QSVLTQPASVSGSPGQSITISCTGTSSDVGGYNYVSWYQQHPGKAPKLMIYEGSKRPSGVSNRFSGSKSGNTASLTISGLQAEDEADYYCSSYTTRSTRVFGGGTKLTVL
notes: scFv, soluble from bacterial periplasm in the screen; also called Her2_S1R3A1_BMV_1G4
For B12, the binding result (in the test with L1-CR1 (Her054P); with EQR (Her017P); in test [1]) was “no binding” in each case.

B13: S1R2A_CS_1F7 (scFv, V domains shown)
VH: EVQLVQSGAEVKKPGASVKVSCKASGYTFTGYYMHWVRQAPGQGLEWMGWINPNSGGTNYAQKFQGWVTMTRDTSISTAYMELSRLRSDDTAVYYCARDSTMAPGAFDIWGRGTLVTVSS
VL: QSVLTQPPSVSVAPGQTARMTCGGNNIESKTVHWYQQKPGQAPVLVVYNDNVRPSGIPARFSGSNSGNTATLTINRVEAGDEADYYCQVWDSSRDQGVFGGGTKLTVL
notes: scFv, on phage in the screen
For the molecule B13, the binding result was “no binding” with L1-CR1 (Her054P) and “binds” in the test with Full length HER2.

B14: S1R3C1_BMV_1H11 (scFv, V domains shown)
VH: GVQLVESGGGLVKPGGSLRLSCAASGFTFSSYNMNWVRQAPGKGLEWVSAISGSGGSTYYADSVTGRFTISRDNSKNTLYLQMNSLRAEDTAVYYCAKDTSGWYGDGMDVWGRGTLVTVSS
VL: DIQMTQSPSTLSASIGDRVTITCRASEGIYHWLAWYQQKPGKAPKLLIYKASSLASGAPSRFSGSGSGTDFTLTISSLQPDDFATYYCQQYSNYPLTFGGGTKLEIK
notes: scFv, soluble from bacterial periplasm in the screen; also called Her2_S1R3C1_BMV_1H11
Consider B14, for which the binding result (with L1-CR1 (Her054P); in the test with EQR (Her017P); in test [1]) was “no binding” throughout.

B15: S1R3B1_BMV_1A10 (scFv, V domains shown)
VH: QMQLVQSGGGVVQPGRSLRLSCAASGFTFSSYGMHWVRQAPGKGLEWVAVISYDGSIKYYADSVKGRFTISRDNSKNTLYLQMNSLRAEDTGVYYCSKDRYSSGWYSSDAFDIWGRGTMVTVSS
VL: SSELTQDPAVSVALGQTVRITCQGDSLRSYYASWYQQKPGQAPVLVIYGKNNRPSGIPDRFSGSSSGNTASLTITGAQAEDEADYYCHSRDSSGNHVLFGGGTKLTVL
notes: scFv, soluble from bacterial periplasm in the screen; also called Her2_S1R3B1_BMV_1A10
For B15, the binding result (in the test with L1-CR1 (Her054P); in the test with EQR (Her017P); in test [1]) was “no binding” each time.
